Experiment: yeast display, Sf9 membrane polyspecificity reagent, FACS + sequencing; frameworks hold sequencing errors
Outline: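 Polyreactivity labels are assigned by the sorting gate from which each nanobody was recovered. The gates were low and high (top ~1%), set on anti-HA fluorescence for expression and streptavidin fluorescence for reagent binding. Before sorting, galactose-induced (36–48 hours) yeast display cells were stained for 1 hour at 4 °C with 10% biotinylated, detergent-solubilized Sf9 membrane reagent.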

Row | Sequence | polyreactivity (PSR sort gate)
1 | QVQLVESGGGLVQAGGSLRLSCAASGYTIRYYAMGSYRQAPGKERELVADISYSGGRTYYADSVKGRITISRDNAKNTVDLLMNSLKPEDSAVYYSNARGGRRAYNYGYWGQGTQVTVSS | high polyreactivity
2 | QVQLVESGGGLVQAGGSLRLSCAASGSTFGGYAMGWYRQAPGKERELVASISGGTRTNYADSVKGRFTISRDNAKNTVYLQMNSLKPEDTAVYYCAAEVGLPTWYTLPVDDYDYWGQGTQVTVSS | low polyreactivity
3 | QVQLVESGGGLVQAGGSLRLSCAASGRIFRLYAMGWYRQAPGKERELVAAISFSGSRTYYADSVKGRFTISRDNAKNNVYLQMNSLQPEDTAVYYCNKDHYVRYGLDYWGQGTQVTVSS | high polyreactivity
4 | QVQHVESGGGLVQAGGSLRLSCAASGRIFYAYTMGWYRQAPGKERELGAAISRSGSTYYADSVKGRFTISRDNAKNPVYLQMNSLKPEDTAVYYCAADVTGGRKYDYWGQGTQVTVSS | low polyreactivity
5 | QVQLVESGGGLVQAGGSLRLSCAASGRTFSNNAMGWYRQAPGKERELVAAISSTGGRTYYADSVKGRFTISRDNAKNTGYLQLNSLKPEDTAVYYCAATYVHYPSLGYDYWGQGTQVTVSS | high polyreactivity
6 | QVQLVESGGGLVQAGGSLRLSCAASGFIFVTNVMGWYRQAPGKERELVAAISRRGTNTYYADSVKGRFTISRDNAKNTVYLQMNSLKPEDTAVYYCNKLVFHTGGFRYDYWGQGTQVTVSS | high polyreactivity
7 | QVQLVESGGGLVQAGGSLRLSCAASGNTFATYALGWYRQAPGKERELVAAITWSGGSTYYADSVKGRFTISRDNAKNTVYLQMNSLKPEDTAVYYCAADYLYYAIPAYYWDTGYDYWGQGTQVTVSS | low polyreactivity
8 | QVQLVESGGGLVQAGGSLRLSCAASAIIFYKNAMGWYRQAPGKERELVAAITRGGSTNYADSVKGRFTISRDNAKNTVYLQMNSLKPEDTAVYYCDKRWFYTRYPTYDYWGQGTQVTVSS | low polyreactivity
9 | QVQLVESGGGLVQAGGSLRLSCAASGLTIRNYAMGWYRQAPGKERELVAAITVSGGSTYYADSVKGRFTISRDNAKNTVYLQMNSLKPEDTAVYYSSARVIHTTYSRNYYYWGQGTQVTVSS | high polyreactivity
10 | QVQLVESGGGLVQAGGSLRLSCAASGRTFPPNSMAWYRQAPGKERELVAGITRGGNTYYADSVKGRFTISRDNAKNTVYLQMNSLKPEDTAVYYCAAERRYYSWYWYRVNYCGQGTQVTVSS | high polyreactivity
11 | QVQLVESAGGLVQAGGSLRLSCAASGRIFYYAMGWYRQAPGKEREFVAAISGSGGSTNYADSVKGRFTISRDNAKNTVYLQMNSLKPEDTAVYYCNAESWSWGFIYEYEYWGQGTQVTVSS | high polyreactivity
12 | QVQLVESGGGLVQAGGSLRITCAASGSIFGTNAMGWYRQAPGKERELVAAIDGGSTTYYADCVKGRFTISRDNAKNTVYLQMNSLKPEDTAVYYCAADGTRYLNYEGYAGYEYWGQGTQETVSS | low polyreactivity
13 | QVQLVESGGGLVQAGGSLRLSCAPSGSTFYPYAMGWYRQAPGKEREFVAAIRSSGTSTYYADSVKGRFTISRDNAKNTVYLQMNSLKPEDTAVYYCAARVRGYSVTRTKPASIGGGSWGQGTQVTVSS | high polyreactivity
14 | PVQLVESGGGLVQAGGSLRLSCAASGRTVWNTMGWDRQSPGNERELVAAISYSGGTTYYADSVKGRFTISRDNAKNTVYLQMNSLKPEDTAVYYCNAVTYGWTAYYKGKRYDYWGQGTQVTVSS | high polyreactivity
15 | QVQLVYSGGGLVQAGGSLRLSCAASGSLFYHNAMGWYRQAAGKEMELDADISWSGGSTYYADSVKGRFTISRDYAKNTVYLQMNSLKPEDTAVYYGNTDARYDEYDEFDYWGQGTQVTVSS | low polyreactivity
16 | QVQLVESGGGLDQAGGSLRLSCAASVNIFIYNTMGWYRQAPGKERELVAAITSDDSTKYADSVKGRFTISRDNAKNPVYLQMNTLKPEDTAVYYCAKRYYHPYWIDYDYWGQGTHVTVSS | low polyreactivity
17 | QVQLVESGGGLVQAGGSLRLSCAASGFTFEIYAMGWYSQAPGKVRELVAAISKSGGSTYYADSVKGRFTISRDNAKKRVYLQMNSLKPEDSSVYSCAARYKALYDYWGQGTQVTVSS | high polyreactivity
18 | QVQLVESGGGLVQAGGSLRLSCAASGLIFRKNAMGWDRQAPGKERELVAAMSYNGASTYYADSVKGRFTISRDNAKNTVYLQMNSLKPEDTAVYYCAAYAGYSDQARYYYWGQGTQVTVSS | high polyreactivity
19 | QVQLVESGGGLVQAGGSLRLSCAASGSIFGRYAMGWYRQAPGKERELVAAISSSGGRTYYADSVKGRFTISRDNAKNTVYLKMNSLKPEDTAVYYCNKDWYYLIPGYNYWGQGTQVTVSS | high polyreactivity
20 | QVQHVESGGGLVQAGGSLRLSCDASGRIFAWYAMGWYRHAPGKERELVASISSGGRTNYADSVKGRFTISRDIAKNTVYLQMNSLKPVDTAVYYCNVAIVWPWYGRWFQEYDYWGQGTQVTVSS | low polyreactivity
21 | QVQLVESGGGLVQAGGSLRLSCAASGRIFKGNAMGWYRQAPGKERELVAAISRNGGSTYYADSVKGRFTISRDNAKNTVSLLMNSLKPEDTAVYYCAAYGYRYTEGGWWRMDYWGQGTEVTVSS | high polyreactivity
22 | QVQLVESGGGLVQAGGSLRLSCAASGFIFFYYAMGWYRQAPGKERELVAAITKNGGRTYYADSVKGRFTISRDNAKNTVYLQMNSLKPEDTAVYYCNKVKGQGGYYGYDYWGQGTQVTVSS | high polyreactivity

Row | Sequence | polyreactivity (PSR sort gate)
23 | QVQLVESGGGLDQAGGSLRLSCAASGFTFGYYAMGWYRQAPGKERELVATIDRGGGTSYADSVKGRFTISRDNAKNTVYLQMNSLKPEDTAVYYCNRAGYGAKARRYRSYWGQGTQVTVSS | high polyreactivity
24 | QVQLVESGGGLVQAGGSLRLSCAASGSTFNKYTMGWYRQAPGKERELVAAITSGDSTYYADSVKGRFTISRDNAKNTVYLQMNSLKPEDTAVYYCAADVRYFDPFDWWGSLVLAYDYWGQGTQVTVSS | low polyreactivity
25 | QVQLVESGGGIVQAGGSLRLSCAASGSIFGINAMGWNRQAPGKERELVAAITSRGGRTYYADSVKGRFTISRDNAKNTVYLQMNSLKPEDTAVYYCAAATPYLIRYYYWGQGTQVTVSS | high polyreactivity
26 | QVQLVESGGGLVQAGGSLRLSCAAAGRTIRRIAMGWYRQAPGKERELVAAISKSGGRTYYADSVKGRFTISRDKAKKTVYLQMNSMKPEDTAVYYCGAYDTVYNSGDYDYWGQGTQVTVSS | high polyreactivity
27 | QVQLVESGGGLVQALGSLRLSCAASGSIFQRNALGWYRLAPGKERELVAAISRSGGSTYYADSVKGRFTISRDNAKNTVYCQMNSLQPEDTAVYYCAAVHFFWGYDYWGQGTQVTVSS | high polyreactivity
28 | QVQLEDSLGGLVQAGGSLRLSCAASGGIFGLYDMGWYRQEPGKERELVAAISWSGGDTYYADSVKGRFTISRDNAKNTVYLQMNSLKPEDTAVYYCAADTYYYSGYEYDYWGQGTQVTVSS | high polyreactivity
29 | QVQLEESGGGLVQAGGSLRLSCAASGRTFGWNVMGWYRQAPGKERELVAAISGGGTSTYYADSVKGRFTISRDNAKNTVYLQMNSLNPEDTAVYYCNAYYPGSYYPRSGRYDYWGQGTQVTVSS | high polyreactivity
30 | QVQLVESGGGFVQAGGSLRLSCAASGVTYGGYAMGWYRQAPGKERELVAAITGSAGNTFYADSVKGRFTISRDNAKHTVYLQMNSLKPEDTAVYYCANTWYPWSRYGYYGRYDSWGLGTQVTVSS | low polyreactivity
31 | QVQHVESGGGLVQAGGSLRLSSAASGSIFSYNAMGWYRQSPGKERELVAAIRASGGDTYYADSVKGRFTISRDNAKNTVYLQMNSLKPEDTAVYYCAARTYSHHYASHGYWGQGTQVTVSS | low polyreactivity
32 | QVQLVESGGRLVQAGGSLRLSCAASGFTFRYYAMGWYRQAPGKERELVAAITWSGGRTYYADSVKGRFTISRDNAKNTVFLQMNSLKPEDTAVYSSNTPSLWYGEDYWGHGTQVTVSS | high polyreactivity
33 | QVQLVESGGGLVQAGGSLRLSCAASGSIDRFYAMGWYRQAPRKERDLVAFITSTGRTYYADSVKGRFTISRDNAKNTVYLQMNSLKPEDTAVYYCAAGYPKRVAYLWFSQYDYWGKGTQVTVSS | low polyreactivity
34 | QVQLVESGGGLVQAGGSLSLICAASGFIFYYYAMGWYRQAPGKERELVAGMSRRGGSTYYADSVKGRFTISRDNAKNTVYLQMNSLKPEDTAVYYCAALGDDATSYGYWGQGTQVTVSS | high polyreactivity
35 | QVQLVESGGGLVQAGGSLRLSCAASGSTFNTYAMGWYRQAPGKERELVAAITFSVGSTYYADSVKGRFTISRDNAKNTVYLQMNSLKPEDTAVYYCARRGAYTGRYDYWGQGTQVTVSS | high polyreactivity
36 | QVQLVESGGGLVQAGGSLRLSCDASGRILHYYAMGWYRQAPGKERELVATISISGGNTRYADSVKGRFTISRDNAKNTVYLQMNSLKPEDTAVYYCDARPYAGFDNWGQGTQVTVSS | high polyreactivity
37 | QVQLVESGGGLVQAGGSLRLSCAASGSTFGPYAMGWYRPAPGKERELVAAIRSGGSTYYADSVKGRFTISRDNAKNTVYLQMNSLKPEDTAVYYCAAGGHHSYTYWIYYYWGQGTQVTVSS | low polyreactivity
38 | QVQLVESGGGLVQAGGSLRLSCAASGFTFRWNAMGWYRQAPGKERELVAAITSRGGSTYYADSVKGRFTISRDNAKNTVYLQINSLKPEDTAVYYCARLAGIGFSYRYDYWGQGTQVTVSS | high polyreactivity
39 | QVQLVESGGGLVQAGGSLRLSCAASGFIFSYYAMGWYRQAPGKEWELVAAISQNVAGTYYADSVKGRFTISRDNAKNTVYLQMNSLKPEDTAVYYCNARPYSGKYYYWGQGTQVTVSS | high polyreactivity
40 | QVQHVESGGGLVQAGGSLRLSCAASGSTIRYYTMGWYRQPPGKERELVAAITYSGGSTYYADSVKGRFTISRDNAKNTVYLQKNSLKPEDTAVYYCAKRWSQPKYDYWGQGTQVTVSS | high polyreactivity
41 | QVQLVESGGGLVQAGGSLRLSCAASGNTFVTKAMGWYRQAPGKERELVAAINSSGGSTYYADSVKGRFTISRDNAKNTVYLQMNSLKPEDTAVYYCAADPLGITSGYGYWGQGTQVTVSS | low polyreactivity
42 | QVHLVDSGGGLVQAGGRLRLSCPASVSTFYYYVKGWYRQPPGKERELVAAISSGCHTNYADSVKGRFTISRDNAKNTVYLQMNSLIPEDSAVYYCAAKPRRGTLLRYGYWGQGTQVTVSS | high polyreactivity
43 | QVQLVESGGGLVQAGGSLRLSCAASGSIFRLYGKGLYRQAPGKEREFGASITYRGGNTYYADSVKGRFTISRDNAKNTVYLQMNSLKPEDTAVYYCARSGYQKVGGFRYDYWGQGTQVTVSS | low polyreactivity
